These results are taken from patent US11370833B2, “Antibody formulations” (Genentech, Inc., priority 2014, dated 2022).

Holding throughout (type): physicochemical
Data set [1] is described as follows: Formulation composition study: FT-NIR percent trehalose crystallization. The conditions noted are these: trehalose 34.2% (wt/v), fast frozen, 12 months at −20° C. As for the experimental part: (§1) Fast freezing was accomplished by quench cooling fifty microliter sample aliquots drop-wise into liquid nitrogen. The freezing endpoint was determined by the increased opacity and the sinking of the sphere from the surface into a stainless steel mesh collection basket. After freezing, one-milliliter aliquots of bulk drug substance frozen pellets were removed from the liquid nitrogen and transferred into sterile, pre-chilled 5 cc glass vials. The vials were then stored on frozen CO2, and sealed with 20 mm Lyo-Stoppers. The formulation screen samples were fast frozen in 96-well microplates using liquid nitrogen. Immediately after the microplates were frozen, the samples were nucleated by scratching the ice surface with a 24 gauge needles (BD, Franklin Lakes, N.J.).
The formulation screen sample microplates were stored at two temperatures (−20±2° C., and −40±2° C.). The freezer temperature was monitored using a Yokogawa temperature monitoring system (Yokogawa Meters and Instruments Corporation, Tokyo, Japan).
Sample microplates for SEC analysis were stored isothermally for up to 365 days. Following frozen storage, microplates were thawed on the lab counter bench under ambient conditions (approximately 22° C.) prior to analysis. Control (0 day) samples were thawed immediately following completion of the freezing process. […]
The percent trehalose crystallization was determined using near infrared diffuse reflectance spectroscopy. […] Using these methods, sample NIR spectra were recorded from 10,000-4,000 cm^−1 using 32 averaged scans with 4 cm^−1 resolution on a Nicolet Antaris FT-Near IR Analyzer equipped with an integrating sphere module (Thermo Fisher Scientific, Waltham, Mass.). Percent trehalose crystallization was calculated using normalized peak intensity ratios of bands at 4306 cm^−1 and 4291 cm^−1 (Connolly, B., et al. (2010) Anal. Biochem. 399(1):48-57). […] Low volume (300 microliter) formulation screen samples were lyophilized and then analyzed for percent trehalose crystallization using the same method.

The nature of data set [2]: Visual trehalose crystallization in frozen trehalose solutions with pH indicating dye. The conditions noted are these: 2.0, 4.0 and 8.0% (wt/v) trehalose, 20 mM histidine-acetate pH 5.5; normal freeze rate, −20° C. for 6 days. Here is the method: Additional solutions were prepared with 0.0, 2.0, 4.0, and 8.0% (wt/v) trehalose in 20 mM histidine-acetate, at pH 5.5, and Water for Injection. Fifty microliters of pHydrion (pH Range: 0-7) pH-indicator dye (Micro Essential Laboratory, NY) was dispensed into a 10 cc glass vial and allowed to evaporate. Approximately four milliliters of the various trehalose formulations were added to the vial and the dye was allowed to dissolve in the solution. Photographs of frozen trehalose solutions were obtained using an Olympus Stylus 770SW digital camera (Olympus America Inc., NJ) in supermacro mode.
(§2) Normal freezing was accomplished by placing sample vials in a freezer at −20° C. until samples were completely frozen. To control for supercooling, ice was nucleated by applying frozen CO2 to the side of each vial until ice formation.
It is of significant interest to understand if trehalose crystallization impacts protein stability at pharmaceutically relevant (≤10% wt/v) concentrations. To evaluate the impact of nominal trehalose concentration on excipient crystallization, solutions were prepared with 0.0, 2.0, 4.0 and 8.0% (wt/v) trehalose dihydrate in the presence of pH indicating dye to better visualize crystallization. The samples were frozen using the normal freeze rate and stored at −20° C. for 6 days.

The nature of data set [3]: FT-NIR trehalose crystallization after frozen storage (freeze rate and storage temperature studies). Here is the method: To prepare the samples for slow and normal freezing, two milliliter sample aliquots were dispensed into autoclaved 5 cc glass vials and sealed with 20 mm Lyo-Stoppers using aseptic technique in a ventilated biosafety hood with laminar air flow. Slow freezing was accomplished by placing sample vials in a lyophilizer on pre-cooled shelves and held between −1° C. and −3° C. for 24 hours.
as §2, §1
Samples frozen at the three freeze rates (slow, normal, and fast) by the methods described were transferred to three freezer units with set points of −20° C., −14° C., and −8° C. with a range of ±2° C. for frozen storage. The freezer temperature was monitored using a Yokogawa temperature monitoring system (Yokogawa Meters and Instruments Corporation, Tokyo, Japan). Sample vials were pulled after 0, 1, 2, 3, 6, 9 and 12 months of isothermal, frozen storage and placed on the lab counter bench under ambient conditions (approximately 22° C.) and allowed to thaw prior to analysis.
Samples intended for trehalose crystallization determination were first freeze-dried using a LyoStar II lyophilizer unit controlled by LyoManager II software (FTS Systems, Stone Ridge, N.Y.). The frozen samples were placed on a pre-cooled shelf and held at −35° C. for 7 hours prior to primary drying. Primary drying was achieved under a system pressure of 150 μm Hg by linearly increasing the shelf temperature to 20° C. at a rate of 0.2° C./min, followed by a 40 hour hold at 20° C. Secondary drying was performed by linearly increasing shelf temperature to 30° C. at 0.2° C./min, followed by an 8 hour hold at 30° C. Thermocouples were placed in various sample vials to monitor temperature during freeze-drying. Following secondary drying, sample vials were stoppered while still under vacuum to prevent samples from hydrating prior to analysis. Low volume (300 microliter), formulation screen samples were lyophilized in 96-well glass plates (Zinsser, Germany) using the same lyophilization method.
The percent trehalose crystallization was determined using near infrared diffuse reflectance spectroscopy. Data collection, calibration, and analysis methods used in this study were adapted from previous work focused on characterizing the spectral differences between amorphous trehalose and crystalline trehalose polymorphs (Connolly, B., et al. (2010) Anal. Biochem. 399(1):48-57). Using these methods, sample NIR spectra were recorded from 10,000-4,000 cm^−1 using 32 averaged scans with 4 cm^−1 resolution on a Nicolet Antaris FT-Near IR Analyzer equipped with an integrating sphere module (Thermo Fisher Scientific, Waltham, Mass.). Percent trehalose crystallization was calculated using normalized peak intensity ratios of bands at 4306 cm^−1 and 4291 cm^−1 (Connolly, B., et al. (2010) Anal. Biochem. 399(1):48-57). Data analysis was conducted using a linear regression analysis with MATLAB (R2007a, The MathWorks, Natick, Massachussetts) (Connolly, B., et al. (2010) Anal. Biochem. 399(1):48-57). […]

Data set [4] can be described thus: Turbidity analysis and visual inspection for precipitates. The conditions noted are these: fast freeze samples. Here is the method: The turbidity of the samples was measured by recording the average absorbance from 340-360 nm in a quartz cuvette with 1-cm path length (Eckhardt, B. M., et al. (1991) Pharm. Res. 8:1360-4) on an HP8453 spectrophotometer using Chemstation software (Agilent Technologies, Santa Clara, Calif.). Sterile water for injection was used to blank the instrument prior to analyses. Turbidity analysis of formulation screen samples was performed on a UV transparent, Corning half area, 96-well microplate using Spectramax M2 instrument (Molecular Devices, Sunnyvale). The turbidity was measured against a Sterile Water for Injection blank and the turbidity value measured by recording the average of the absorbance from 340-360 nm.

Setting [5] is: Fast freeze, 12 months frozen storage at −8° C.
Where [6] appears, read: Fast freeze, 12 months frozen storage at −14° C.
[7] abbreviates: Fast freeze, 12 months frozen storage at −20° C.
[8] abbreviates: Normal freeze, 12 months frozen storage at −8° C.
The mark [9] stands for this setting: Normal freeze, 12 months frozen storage at −14° C.
Where [10] appears, read: Normal freeze, 12 months frozen storage at −20° C.
Setting [11] is: Slow freeze, 12 months frozen storage at −8° C.
Where [12] appears, read: Slow freeze, 12 months frozen storage at −14° C.
Where [13] appears, read: Slow freeze, 12 months frozen storage at −20° C.

Consider `OC[C@H]1O[C@H](O[C@H]2O[C@H](CO)[C@@H](O)[C@H](O)[C@H]2O)[C@H](O)[C@@H](O)[C@@H]1O` [trehalose], for which the percent crystallized trehalose in data set [1] ([bevacizumab]=0 mg/mL) is 86%. Moreover, the “visual trehalose crystallization after induced nucleation” value in data set [2] is on record as “visually observed”. Besides, the “time at which trehalose crystallization reaches a plateau” value in data set [3] (frozen storage, data not shown) is at most 2 weeks.
In the case of “Bevacizumab: recombinant humanized anti-VEGF IgG1 monoclonal antibody; 25 mg/mL in 5.4% trehalose, 51 mM sodium phosphate pH 6.2, 0.04% polysorbate 20”, the percent crystallized trehalose in data set [1] ([bevacizumab]=25 mg/mL) is 61%; in data set [1] ([bevacizumab]=100 mg/mL), 47%. Also, the “precipitates by turbidity analysis and visual inspection” value in data set [4] is “formation of precipitates”. Further, the “trehalose crystallization by FT-NIR, fast freeze samples” value in data set [3] (12 month samples, fast freeze) is recorded as “measurable amounts of trehalose crystallization”. Moreover, the “trehalose crystallization by FT-NIR, slow and normal freeze samples” value in data set [3] (12 month samples, slow and normal freeze) is listed as “no measurable amounts of trehalose crystallization”. Besides, the “Amorphous Trehalose” value in data set [3] (setting [5]) was determined as 3.8 % wt/v; in data set [3] (setting [6]) it was 2.9 % wt/v; in data set [3] (setting [7]), 3.0 % wt/v; in data set [3] (setting [8]) it was 5.2 % wt/v; in data set [3] (setting [9]), 5.1 % wt/v; in data set [3] (setting [10]), 5.1 % wt/v. The results for the “Amorphous Trehalose” value in data set [3] (setting [11]), in data set [3] (setting [12]) and in data set [3] (setting [13]) were 5.2 % wt/v, 5.2 % wt/v and 5.1 % wt/v, respectively. For the same compound, the “Crystallized Trehalose” value stood at 1.6 % wt/v in data set [3] (setting [5]); 2.5 % wt/v in data set [3] (setting [6]); 2.5 % wt/v in data set [3] (setting [7]); 0.3 % wt/v in data set [3] (setting [8]); 0.3 % wt/v in data set [3] (setting [9]); 0.3 % wt/v in data set [3] (setting [10]). The entries for the “Crystallized Trehalose” value in data set [3] (setting [11]), in data set [3] (setting [12]) and in data set [3] (setting [13]) were 0.2 % wt/v, 0.3 % wt/v and 0.3 % wt/v, respectively.
